In one assay the target is Talin R1-R2-R3 (UniProt Q9Y490). Conditions: cited from earlier work.
Assay [1] has as its target RIAM (Homo sapiens) (UniProt Q7Z5R6). The following applies: cited from earlier work.
Assay [2] has the same target. Conditions: cited from earlier work. This is another data set of the same source.
The target in assay [3] is T1, talin R1–R2–R3 (F2–F3–R1–R2–R3–R13) (human).
T1 chain: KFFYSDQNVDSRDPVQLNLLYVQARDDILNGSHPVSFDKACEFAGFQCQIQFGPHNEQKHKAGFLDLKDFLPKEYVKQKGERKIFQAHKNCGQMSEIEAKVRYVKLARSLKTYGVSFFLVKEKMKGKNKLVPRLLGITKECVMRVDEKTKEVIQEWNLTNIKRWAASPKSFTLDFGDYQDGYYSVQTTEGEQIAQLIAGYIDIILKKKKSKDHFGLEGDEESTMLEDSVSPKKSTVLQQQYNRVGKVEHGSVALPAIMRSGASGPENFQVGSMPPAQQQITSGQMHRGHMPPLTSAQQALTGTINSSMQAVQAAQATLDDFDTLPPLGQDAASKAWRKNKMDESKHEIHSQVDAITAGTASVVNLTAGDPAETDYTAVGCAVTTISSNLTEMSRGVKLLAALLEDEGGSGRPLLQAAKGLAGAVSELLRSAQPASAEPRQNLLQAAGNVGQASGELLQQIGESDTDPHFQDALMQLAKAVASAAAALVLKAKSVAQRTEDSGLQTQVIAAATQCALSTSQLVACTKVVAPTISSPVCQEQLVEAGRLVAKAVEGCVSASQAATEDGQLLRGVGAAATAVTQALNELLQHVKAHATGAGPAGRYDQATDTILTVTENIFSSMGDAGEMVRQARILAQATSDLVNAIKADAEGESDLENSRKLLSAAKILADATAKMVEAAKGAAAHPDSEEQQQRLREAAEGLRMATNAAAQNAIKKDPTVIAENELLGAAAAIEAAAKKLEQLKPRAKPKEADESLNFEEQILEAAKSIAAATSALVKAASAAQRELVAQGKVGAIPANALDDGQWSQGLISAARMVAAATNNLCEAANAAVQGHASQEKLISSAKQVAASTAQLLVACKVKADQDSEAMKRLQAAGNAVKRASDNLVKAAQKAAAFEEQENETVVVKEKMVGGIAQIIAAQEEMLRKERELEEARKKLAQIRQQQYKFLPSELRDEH
As to the kind of experiment: fluorescence microscopy of protein-coated micropatterns; talin construct (1 µM during coating) on disk micropatterns, 100 nM mCherry-RIAM 1-306 in solution, with actomyosin (2.4 µM actin, 50 nM myosin II) applying force to talin.

For assay [4], the target named is T2, talin F2–F3–R1–R2–R3 (talin 196–911) (human, UniProt Q9Y490 196-911).
T2 construct: human talin-1, F2–F3–R1–R2–R3, residues 196–911; The methods tell of GST cleavage only for mCherry-RIAM 1-306 and EGFP-Vh, so GST was probably kept on this construct; also called the same construct fused to R1–R2–R3; source: E. coli BL21 DE3, purified (glutathione-Sepharose, Ni-NTA)
Description: fluorescence microscopy of protein-coated micropatterns; talin construct (1 µM during coating) on 5 µm disk micropatterns, 0–1 µM mCherry-RIAM 1-306 in solution, no actomyosin; Kd estimated as the RIAM concentration at half saturation. Conditions: both partners purified.

Assay [5] deals with T1, talin R1–R2–R3 (F2–F3–R1–R2–R3–R13). The description is as above.
The target in assay [6] is T3, talin R11 (F2–F3–R11–R13) (human).
T3 chain: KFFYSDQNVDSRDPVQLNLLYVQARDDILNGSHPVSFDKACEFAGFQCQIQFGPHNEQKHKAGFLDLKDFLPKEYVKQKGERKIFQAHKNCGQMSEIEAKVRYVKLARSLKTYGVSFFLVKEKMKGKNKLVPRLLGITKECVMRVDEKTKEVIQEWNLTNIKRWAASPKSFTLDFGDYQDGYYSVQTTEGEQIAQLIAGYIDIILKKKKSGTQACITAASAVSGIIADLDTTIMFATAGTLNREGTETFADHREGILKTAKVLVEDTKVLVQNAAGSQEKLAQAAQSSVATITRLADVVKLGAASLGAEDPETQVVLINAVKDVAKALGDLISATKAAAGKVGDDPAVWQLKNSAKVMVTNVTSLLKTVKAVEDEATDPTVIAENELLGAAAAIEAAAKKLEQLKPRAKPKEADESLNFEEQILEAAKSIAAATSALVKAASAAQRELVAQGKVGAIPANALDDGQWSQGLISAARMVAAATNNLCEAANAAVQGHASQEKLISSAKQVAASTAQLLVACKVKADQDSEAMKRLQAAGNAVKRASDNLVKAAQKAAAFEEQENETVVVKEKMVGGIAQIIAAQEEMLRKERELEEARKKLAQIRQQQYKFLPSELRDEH

The target of assay [7] is T4, talin R7–R8 (F2–F3–R7–R8–R13) (human).
T4 chain: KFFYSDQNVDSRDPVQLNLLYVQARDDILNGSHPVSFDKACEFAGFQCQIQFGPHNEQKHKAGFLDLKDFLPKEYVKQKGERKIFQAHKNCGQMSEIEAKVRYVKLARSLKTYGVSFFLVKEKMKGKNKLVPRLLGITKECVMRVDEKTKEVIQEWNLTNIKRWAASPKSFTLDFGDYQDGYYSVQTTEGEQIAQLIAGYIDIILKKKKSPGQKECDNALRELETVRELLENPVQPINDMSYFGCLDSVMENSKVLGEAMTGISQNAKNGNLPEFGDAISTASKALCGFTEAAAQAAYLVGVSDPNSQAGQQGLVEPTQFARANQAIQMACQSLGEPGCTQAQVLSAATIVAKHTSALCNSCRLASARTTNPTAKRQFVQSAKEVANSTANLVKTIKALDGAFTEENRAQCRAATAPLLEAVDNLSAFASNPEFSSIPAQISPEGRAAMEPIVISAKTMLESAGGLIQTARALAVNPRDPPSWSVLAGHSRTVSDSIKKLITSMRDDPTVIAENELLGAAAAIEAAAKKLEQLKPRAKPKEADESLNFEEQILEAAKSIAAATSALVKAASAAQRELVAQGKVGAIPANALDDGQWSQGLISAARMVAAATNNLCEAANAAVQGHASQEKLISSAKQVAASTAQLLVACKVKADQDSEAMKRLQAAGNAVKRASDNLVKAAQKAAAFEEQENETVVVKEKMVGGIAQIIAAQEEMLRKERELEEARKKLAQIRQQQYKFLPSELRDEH

Assay [8] addresses T1, talin R1–R2–R3 (F2–F3–R1–R2–R3–R13).

Like-named read-outs stand apart in the source and are kept apart here.

Sequence of RIAM (Homo sapiens) (Q7Z5R6 whole entry): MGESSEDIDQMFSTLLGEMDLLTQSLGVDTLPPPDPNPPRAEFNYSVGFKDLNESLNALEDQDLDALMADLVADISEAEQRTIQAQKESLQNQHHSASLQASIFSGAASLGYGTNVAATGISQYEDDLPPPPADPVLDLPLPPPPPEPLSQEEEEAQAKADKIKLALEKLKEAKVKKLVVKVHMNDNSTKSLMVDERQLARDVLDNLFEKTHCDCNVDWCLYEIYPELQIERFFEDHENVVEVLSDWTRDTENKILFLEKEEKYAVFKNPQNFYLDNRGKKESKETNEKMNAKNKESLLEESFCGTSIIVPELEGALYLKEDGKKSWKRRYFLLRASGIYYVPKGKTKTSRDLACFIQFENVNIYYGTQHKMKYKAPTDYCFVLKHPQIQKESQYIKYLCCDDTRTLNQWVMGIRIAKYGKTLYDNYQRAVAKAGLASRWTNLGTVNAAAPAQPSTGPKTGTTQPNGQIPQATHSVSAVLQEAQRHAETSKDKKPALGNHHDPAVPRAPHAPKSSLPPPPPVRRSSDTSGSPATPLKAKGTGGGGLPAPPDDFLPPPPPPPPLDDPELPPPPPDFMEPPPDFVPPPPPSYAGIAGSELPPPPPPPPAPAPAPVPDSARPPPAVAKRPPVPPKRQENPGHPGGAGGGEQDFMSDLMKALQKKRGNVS

Regarding Vinculin Vh (from UniProt P18206), the Kd with Talin R1-R2-R3 is 140 nM; with RIAM (Homo sapiens) [1], 5000 nM.

Consider Talin F3 (from UniProt P26039), for which the Kd with RIAM (Homo sapiens) [2] is 32000 nM.

B1: mCherry-RIAM 1-306 (domain or fragment, mouse, UniProt Q8R5A3 1-306, looked up)
chain: MGESNEDIDQMFSTLLGEMDLLTQSLGVDTLPPPDPNPPREEFNYTVGFKDLNESLNALEDQDLDALMADLVADISEAEQRTIQAQKESSQNQDRFALLRASDGQGTASGGYGASAAAIDVSHHEEALPPPPVEPMLDLLPPPPPPPPPELLSKEEEEAKAKADKIKLALEKLKEAKVKKLVVKVHMDDSSTKSLMVDERQLARDVLDNLFEKTHCDCNVDWCLYEIYPELQIERVFEDHENVVEVLSDWTRDTENKVLFLEKEERYAVFKNPQNFYLDNKGKKENKETNEKMNAKNKEYLLEESF
notes: Cloned in a homemade pGEX-6P2-mCherry plasmid; source: E. coli BL21 DE3, purified (glutathione-Sepharose, PreScission cleavage, Ni-NTA); not shown: GST, N-terminal, cleaved
As to B1, in [3], the percent of RIAM dissociated from talin at the end of the kinetics with actomyosin was 50%. Besides, the binding result in assay [4] is listed as “binds”. Moreover, the Kd in assay [5] was 36 nM; in [6], 36 nM; in assay [7] it was 38 nM; in assay [8] it was 134 nM.

By Kd is commonly meant the free concentration of one partner at which half of the binding sites on the other are occupied at equilibrium, for simple one-to-one binding.

Source of the values: article PMC7305319, “Talin dissociates from RIAM and associates to vinculin sequentially in response to the actomyosin force” (Nature Communications, 2020).
